In patent US5759768A, “Assays for factors affecting circularization of DNA, assays for factors affecting DNA integration, factors, and uses thereof” (priority 1995, dated 1998):

Columns and labels:
Format in all cases: biochemical, HIV-1
[1] = test system: purified linear viral DNA; test: Ligation of purified linear viral DNA by phage T4 DNA ligase and Klenow fragment; settings: T4 DNA ligase alone
Description: Linear viral DNA was purified from cytoplasmic extracts of cells 4 hours post-infection as described above. In FIG. 22, a purified linear viral DNA was added to cytoplasmic extracts from uninfected SupT1 cells and incubated at 37° C. for 45 minutes. The uninfected SupT1 cells used for the preparation of extracts were either untreated (lanes 3-11) or cultured in the presence of 10 ng/ml phorbol 12-myristate 13-acetate for six hours prior to extraction (lane 2). […] Lanes 2-11: reaction products following incubation of purified linear viral DNA in uninfected extracts containing 1 mM ATP (lanes 2 and 3), nothing added (lane 4), 1 mM dATP (lane 5), 1 mM UTP (lane 6), 1 mM CTP (lane 7), 1 mM GTP (lane 8), 1 mM ATPγS (lane 9), or 1 mM ADP (lane 10). Lane 11: uninfected SupT1 cell extract was treated with proteinase K for 10 minutes at 37° C., then linear viral DNA was added and incubation continued for 45 minutes. In FIG. 23, lanes 1, 2, 4 and 5: purified linear viral DNA was incubated with T4 DNA ligase (lane 1), T4 polynucleotide kinase and T4 DNA ligase (lane 2), Klenow fragment of E. coli DNA polymerase I and T4 DNA ligase (lane 3), or Klenow fragment, T4 polynucleotide kinase, and T4 DNA ligase (lane 4). Lanes 3 and 6: in vitro circularization reaction products generated in cell extracts, included as size standards. […]

[2] = test system: viral DNA integrated into .phi.X174 target DNA; settings: for Relative activity, % of standard: pretreatment/37° C./30 min, target DNA 10 μg/ml
Description: (§1) The chronically HIV-1 infected Molt IIIB human T cell line (HTLV IIIB virus strain) was the source of virus for cell-free infections. This human T cell line constitutively produces a low level of the HTLV-111B strain of HIV-1. Culture supernatant containing a high concentration of virus was prepared by incubating 300×10^6 Molt IIIB cells in 50 ml fresh RPMI 1640 medium containing 20% fetal calf serum and 10 ng of phorbol 12-myristate 13-acetate per ml for 20-24 hours. […] Cytoplasmic extracts (3 ml) were prepared 4-4.5 hours post-infection, by a modification of the procedure of Brown et al., Cell 49: 342-356 (1987).
(§2) At specified times after infection, cells were washed twice with buffer K (20 mM Hepes, pH 7.4, 150 mM KCl, 5 mM MgCl2, 1 mM dithiothreitol, […]) and then lysed at a concentration of 33×10^6 cells per ml in the same buffer containing 0.025% digitonin or 0.025% Triton X-100. Cells were extracted for 10 minutes at room temperature, and the lysate was centrifuged at 1000×g for 3 minutes, and is referred to as "cytoplasmic extract". Cytoplasmic extract was the source of viral DNA for analyses in the assays described below. The pellet from the initial low-speed centrifugation contained cell debris and intact nuclei and is called the "nuclear pellet". Cell extracts from uninfected SupT1 cells were prepared in the same manner.
DNA samples were layered on 0.8% agarose gels and electrophoresed at 1 V/cm for 15 hour in Tris/acetate/EDTA buffer. After electrophoresis, DNA was blotted by capillary action onto nitrocellulose (0.45 μm, Schleicher & Schuell). […]
Cytoplasmic extracts prepared from SupT1 cells 4 hours after infection with HIV-1 were incubated with exogenously added target DNA under integration reaction conditions. Products of the reactions were analyzed by Southern blot hybridization. The time course of integration into linear .phi.X174 DNA target was determined. […] Integration was detected by the shift of linear viral DNA on Southern blots from the characteristic 9.7-kilobase (kb) position to a position corresponding to viral DNA plus target DNA.

[3] = test system: linear viral DNA (circularization); settings: pretreatment for 30 minutes prior to addition of ATP
Description: as §1
as §2, with “The pellet from the initial low-speed centrifugation contained cell debris and intact nuclei and is called the "nuclear pellet". Cell extracts from uninfected SupT1 cells were prepared in the same manner.” left out
Cell extracts were prepared from cells four to five hours after infection with HIV-1, using the above-described methods to yield fully functional viral preintegration complexes. […] Therefore, only LTR-containing DNA fragments are detected. […]

preintegration complexes = test: Circularization mediated by partially purified preintegration complexes; settings: pretreatment of uninfected SupT1 extracts
Description: Viral preintegration complexes were partially purified from cytoplasmic extracts by Sephacryl S400 gel filtration chromatography. Cytoplasmic extracts (0.8 ml) were loaded onto a 22-ml Sephacryl S400 (Pharmacia) column, 28 cm in height, equilibrated in buffer K containing 0.5% Triton X-100 at 4° C. Fractions (0.5 ml) were collected at a flow rate of approximately 0.2 ml/min.
The linear viral DNA present in cytoplasmic extracts is a part of the nucleoprotein preintegration complex that can be separated from the bulk of cellular proteins by gel filtration chromatography [Farnet and Haseltine, J. Virol., 65: 1910-1915 (1991)]. Preintegration complexes were partially purified by Sephacryl S400 column chromatography and tested for the ability to mediate the circularization of viral DNA. Cytoplasmic extracts (1 ml, vol) were fractionated by Sephacryl S-400 gel filtration chromatography as previously described. The void volume fractions of the column, containing the peak of viral DNA, were pooled (total volume, 1.5 ml) and incubated as follows with the results shown in FIG. 20. […]

B1: T4 DNA ligase: phage T4 ligase (protein, UniProt P00970 1-487, looked up)
DNA ligase: MILKILNEIASIGSTKQKQAILEKNKDNELLKRVYRLTYSRGLQYYIKKWPKPGIATQSFGMLTLTDMLDFIEFTLATRKLTGNAAIEELTGYITDGKKDDVEVLRRVMMRDLECGASVSIANKVWPGLIPEQPQMLASSYDEKGINKNIKFPAFAQLKADGARCFAEVRGDELDDVRLLSRAGNEYLGLDLLKEELIKMTAEARQIHPEGVLIDGELVYHEQVKKEPEGLDFLFDAYPENSKAKEFAEVAESRTASNGIANKSLKGTISEKEAQCMKFQVWDYVPLVEIYSLPAFRLKYDVRFSKLEQMTSGYDKVILIENQVVNNLDEAKVIYKKYIDQGLEGIILKNIDGLWENARSKNLYKFKEVIDVDLKIVGIYPHRKDPTKAGGFILESECGKIKVNAGSGLKDKAGVKSHELDRTRIMENQNYYIGKILECECNGWLKSDGRTDYVKLFLPIAIRLREDKTKANTFEDVFGDFHEVTGL
B1 was tested, and the “ligation of the ends of linear viral DNA” value [1] was “unable to ligate the ends of the linear DNA molecules”.

B2: Proteinase K: an enzyme such as proteinase K (protein, UniProt P06873 106-384, looked up)
Proteinase K: AAQTNAPWGLARISSTSPGTSTYYYDESAGQGSCVYVIDTGIEASHPEFEGRAQMVKTYYYSSRDGNGHGTHCAGTVGSRTYGVAKKTQLFGVKVLDDNGSGQYSTIIAGMDFVASDKNNRNCPKGVVASLSLGGGYSSSVNSAAARLQSSGVMVAVAAGNNNADARNYSPASEPSVCTVGASDRYDRRSSFSNYGSVLDIFGPGTSILSTWIGGSTRSISGTSMATPHVAGLAAYLMTLGKTTAASACRYIADTANKGDLSNIPFGTVNLLAYNNYQA
In the case of B2, the integration in vitro ([2]; pretreatment of extracts prior to incubation with target DNA) is reported as “abolished integration in vitro”, the “Relative activity, % of standard” value [2] is reported as 0 % of standard and the circle formation [3] is reported as “abolished circle formation”. For the same molecule, the “ability of uninfected extracts to restore 1-LTR and simple 2-LTR circle formation” value (preintegration complexes) was “abolished the ability of the extracts to restore 1-LTR and simple 2-LTR circle formation”.

B3: RNase A: RNase A (protein, UniProt P61823 27-150, looked up)
Ribonuclease pancreatic: KETAAAKFERQHMDSSTSAASSSNYCNQMMKSRNLTKDRCKPVNTFVHESLADVQAVCSQKNVACKNGQTNCYQSYSTMSITDCRETGSSKYPNCAYKTTQANKHIIVACEGNPYVPVHFDASV
With B3 the “Relative activity, % of standard” value [2] was 100 % of standard.
